According to publication PMC9324849, “A Light‐Activatable Photocaged Variant of the Ultra‐High Affinity ALFA‐Tag Nanobody” (Chembiochem, 2022):

Legend:
sfGFP-ALFA-tag (3) [1] = assay: MST; 10 nM sfGFP-ALFA-tag (3) with a dilution series of photobody 1, before light activation
[2] = molecular target: ALFA-Pb displayed on E. coli cells (AIDA autodisplay system), photocaged, not irradiated; assay: flow cytometry on cells; E. coli cells displaying the nanobody (AIDA autodisplay system), not irradiated, mixed with a dilution series of fluorescent sfGFP-ALFA-tag (3)
sfGFP-ALFA-tag (3) [3] = molecular target: T1, sfGFP-ALFA-tag (3) (synthetic construct …); assay: flow cytometry on cells; E. coli cells displaying the ALFA-Pb irradiated in 100 uL PBS (OD600=1; 365 nm, 530 mW; 5 cm distance), then different concentrations of sfGFP-ALFA-tag (3) added; conditions: one partner purified
T1 construct: ALFA-tag, laboratory-designed amphiphilic peptide of 13 amino acids; sfGFP is the fluorescent marker read in MST and flow cytometry; also called protein 3; fusion construct sfGFP-ALFA-tag
T1 chain: SRLEEELRRRLTE

sfGFP-ALFA-tag (3) [4] = molecular target: T1, sfGFP-ALFA-tag (3); assay: flow cytometry on cells; E. coli cells displaying the nanobody (AIDA autodisplay system), not irradiated, mixed with a dilution series of fluorescent sfGFP-ALFA-tag (3); conditions: one partner purified

Molecule: ALFA-tag photobody (ALFA-Pb) 1, Tyr42ONBY, photocaged (VHH)
- Kd (sfGFP-ALFA-tag (3) [1]): 7.9 µM

Molecule: sfGFP-ALFA-tag (3)
- Kd [2]: 3.2 µM

B1: decaged ALFA-Pb displayed on E. coli cells (after irradiation at 365 nm) (VHH)
VHH: EVQLQESGGGLVQPGGSLRLSCTASGVTISALNAMAMGWYRQAPGERRVMVAAVSERGNAMYRESVQGRFTVTRDFTNKMVSLQMDNLKPEDTAVYYCHVLEDRVDSFHDYWGQGTQVTVSS
notes: Made from m2 by UV light
- Kd (sfGFP-ALFA-tag (3) [3]): 0.000183 ± 6e-06 µM

B2: ALFA-Nb (wild type) displayed on E. coli cells, unirradiated control (VHH)
VHH: B1 VHH
notes: ALFA-tag nanobody (ALFA-Nb), wild type; also called unirradiated ALFA-Nb control; ALFA-tag nanobody
- Kd (sfGFP-ALFA-tag (3) [4]): 0.000346 ± 5e-06 µM
